Literature values as cited in publication PMC3436762.
pKd: −log10 of the molar value.

Molecular target: TRAIL (Homo sapiens) (UniProt P50591)
Conditions: cited from earlier work

Sequence of UniProt P50591 (P50591 whole entry): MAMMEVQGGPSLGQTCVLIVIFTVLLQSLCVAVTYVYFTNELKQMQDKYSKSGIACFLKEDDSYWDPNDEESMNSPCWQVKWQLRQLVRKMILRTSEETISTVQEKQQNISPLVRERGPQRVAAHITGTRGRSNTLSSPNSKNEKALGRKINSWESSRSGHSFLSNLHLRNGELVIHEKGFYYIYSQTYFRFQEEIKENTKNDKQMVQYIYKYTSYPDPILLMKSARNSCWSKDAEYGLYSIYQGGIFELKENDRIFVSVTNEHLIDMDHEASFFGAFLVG

Substance: osteoprotegerin (from UniProt O00300)
- pKd: 6.40
